Test results reported in publication PMC10397247.
Like-named read-outs stand apart in the source and are kept apart here.

T1: 4H2253-AA
T1 chain: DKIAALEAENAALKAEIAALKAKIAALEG

T2: 4H2274-AA
T2 chain: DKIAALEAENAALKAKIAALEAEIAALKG

T3: 4H2330-AA
T3 chain: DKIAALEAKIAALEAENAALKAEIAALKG

T4: 4H2389-AA
T4 chain: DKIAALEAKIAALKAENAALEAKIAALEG

T5: 4H2438-AA
T5 chain: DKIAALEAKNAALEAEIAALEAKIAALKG

T6: 4H2473-AA
T6 chain: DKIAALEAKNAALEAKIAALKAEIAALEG

T7: 4H2611-AA
T7 chain: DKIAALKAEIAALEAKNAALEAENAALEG

T8: 4H2649-AA
T8 chain: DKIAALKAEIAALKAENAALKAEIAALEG

T9: 4H2698-AA
T9 chain: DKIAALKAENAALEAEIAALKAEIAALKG

T10: 4H2725-AA
T10 chain: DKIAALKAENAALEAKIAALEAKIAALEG

T11: 4H2865-AA
T11 chain: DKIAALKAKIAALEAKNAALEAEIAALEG

T12: 4H310-AA
T12 chain: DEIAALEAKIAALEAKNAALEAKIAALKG

T13: 4H3120-AA
T13 chain: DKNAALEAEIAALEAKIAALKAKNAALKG

T14: 4H3130-AA
T14 chain: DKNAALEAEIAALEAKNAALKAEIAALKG

T15: 4H3165-AA
T15 chain: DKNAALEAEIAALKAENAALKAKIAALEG

T16: 4H3381-AA
T16 chain: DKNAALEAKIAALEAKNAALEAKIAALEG

T17: 4H3395-AA
T17 chain: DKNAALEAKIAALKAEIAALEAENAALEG

T18: 4H3606-AA
T18 chain: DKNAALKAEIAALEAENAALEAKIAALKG

T19: 4H3631-AA
T19 chain: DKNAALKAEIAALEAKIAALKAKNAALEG

T20: 4H3697-AA
T20 chain: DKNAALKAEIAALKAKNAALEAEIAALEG

T21: 4H3718-AA
T21 chain: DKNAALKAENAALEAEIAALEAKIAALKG

T22: 4H3753-AA
T22 chain: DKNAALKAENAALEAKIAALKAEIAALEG

T23: 4H384-AA
T23 chain: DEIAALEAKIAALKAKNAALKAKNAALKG

T24: 4H3865-AA
T24 chain: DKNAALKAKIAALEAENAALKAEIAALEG

T25: 4H458-AA
T25 chain: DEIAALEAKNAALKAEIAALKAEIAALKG

T26: 4H485-AA
T26 chain: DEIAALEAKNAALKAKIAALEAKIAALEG

T27: 4H570-AA
T27 chain: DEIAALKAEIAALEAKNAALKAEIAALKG

T28: 4H629-AA
T28 chain: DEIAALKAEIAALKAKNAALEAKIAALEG

T29: 4H697-AA
T29 chain: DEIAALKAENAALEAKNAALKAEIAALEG

T30: 4H745-AA
T30 chain: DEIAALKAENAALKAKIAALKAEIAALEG

T31: 4H797-AA
T31 chain: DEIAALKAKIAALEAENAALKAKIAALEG

T32: 4H850-AA
T32 chain: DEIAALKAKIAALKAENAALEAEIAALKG

T33: 4H891-AA
T33 chain: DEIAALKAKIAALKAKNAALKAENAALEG

T34: 4H909-AA
T34 chain: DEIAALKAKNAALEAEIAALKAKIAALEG

T35: 4H94-AA
T35 chain: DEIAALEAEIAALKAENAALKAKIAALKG

T36: 4H982-AA
T36 chain: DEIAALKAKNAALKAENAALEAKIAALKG

T37: 4H249-AA
T37 chain: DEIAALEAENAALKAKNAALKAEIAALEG

T38: 4H2774-AA
T38 chain: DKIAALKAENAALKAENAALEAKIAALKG

T39: 4H_APH
T39 chain: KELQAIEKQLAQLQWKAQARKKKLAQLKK

T40: 4H_BCR
T40 chain: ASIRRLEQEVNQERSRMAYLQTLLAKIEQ


Experiments:
Test in all cases: two-hybrid library CCmax;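 further: natural log of median RNA to DNA barcode read ratio; higher means stronger binding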
4H2253-AA = target: T1, 4H2253-AA
4H2274-AA = target: T2, 4H2274-AA
4H2330-AA = target: T3, 4H2330-AA; conditions: mean of both orientations
4H2389-AA = target: T4, 4H2389-AA; conditions: mean of both orientations
4H2438-AA = target: T5, 4H2438-AA; conditions: mean of both orientations
4H2473-AA = target: T6, 4H2473-AA; conditions: mean of both orientations
4H2611-AA = target: T7, 4H2611-AA; conditions: mean of both orientations
4H2649-AA = target: T8, 4H2649-AA; conditions: mean of both orientations
4H2698-AA = target: T9, 4H2698-AA; conditions: mean of both orientations
4H2725-AA = target: T10, 4H2725-AA; conditions: mean of both orientations
4H2865-AA = target: T11, 4H2865-AA; conditions: mean of both orientations
4H310-AA = target: T12, 4H310-AA
4H3120-AA = target: T13, 4H3120-AA; conditions: mean of both orientations
4H3130-AA = target: T14, 4H3130-AA; conditions: mean of both orientations
4H3165-AA = target: T15, 4H3165-AA; conditions: mean of both orientations
4H3381-AA = target: T16, 4H3381-AA; conditions: mean of both orientations
4H3395-AA = target: T17, 4H3395-AA; conditions: mean of both orientations
4H3606-AA = target: T18, 4H3606-AA; conditions: mean of both orientations
4H3631-AA = target: T19, 4H3631-AA
4H3697-AA = target: T20, 4H3697-AA; conditions: mean of both orientations
4H3718-AA = target: T21, 4H3718-AA; conditions: mean of both orientations
4H3753-AA = target: T22, 4H3753-AA; conditions: mean of both orientations
4H384-AA = target: T23, 4H384-AA; conditions: mean of both orientations
4H3865-AA = target: T24, 4H3865-AA; conditions: mean of both orientations
4H458-AA = target: T25, 4H458-AA; conditions: mean of both orientations
4H485-AA = target: T26, 4H485-AA; conditions: mean of both orientations
4H570-AA = target: T27, 4H570-AA; conditions: mean of both orientations
4H629-AA = target: T28, 4H629-AA; conditions: mean of both orientations
4H697-AA = target: T29, 4H697-AA; conditions: mean of both orientations
4H745-AA = target: T30, 4H745-AA; conditions: mean of both orientations
4H797-AA = target: T31, 4H797-AA; conditions: mean of both orientations
4H850-AA = target: T32, 4H850-AA; conditions: mean of both orientations
4H891-AA = target: T33, 4H891-AA; conditions: mean of both orientations
4H909-AA = target: T34, 4H909-AA; conditions: mean of both orientations
4H94-AA = target: T35, 4H94-AA; conditions: mean of both orientations
4H982-AA = target: T36, 4H982-AA; conditions: mean of both orientations
4H249-AA = target: T37, 4H249-AA; conditions: mean of both orientations
4H2774-AA = target: T38, 4H2774-AA; conditions: mean of both orientations
4H_APH = target: T39, 4H_APH
4H_BCR = target: T40, 4H_BCR; conditions: mean of both orientations
4H_GCN4 = target: 4H_GCN4
GCN2_T = conditions: mean of both orientations

4H_GCN4, sequence (chain, as listed by the source): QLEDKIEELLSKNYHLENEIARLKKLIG

| interaction score (4H2330-AA) | interaction score (4H2389-AA) | interaction score (4H2438-AA) | interaction score (4H2473-AA) | interaction score (4H2649-AA) | interaction score (4H2698-AA) | interaction score (4H2725-AA) | interaction score (4H2865-AA) | interaction score (4H3120-AA) | interaction score (4H3130-AA) | interaction score (4H3165-AA) | interaction score (4H3381-AA) | interaction score (4H3395-AA) | interaction score (4H3697-AA) | interaction score (4H3753-AA) | interaction score (4H3865-AA) | interaction score (4H458-AA) | interaction score (4H485-AA) | interaction score (4H570-AA) | interaction score (4H629-AA) | Binder | further results |
| --- | --- | --- | --- | --- | --- | --- | --- | --- | --- | --- | --- | --- | --- | --- | --- | --- | --- | --- | --- | --- | --- |
| -1.14 | -1.29 | -0.259 | -1.02 | -1.27 | 0.72 | -0.468 | -1.42 | -1.77 | -1.14 | -1.44 | -1.4 | -1.22 | -1.65 | -1.13 | -1.13 | 0.0604 | -0.48 | -1.41 | -1.74 | DKIAALEAENAALKAEIAALKAKIAALEG [4H2253-AA] | interaction score (4H2253-AA): 2.28; interaction score (4H2274-AA; mean of both orientations): -0.65; interaction score (4H249-AA): -1.56; interaction score (4H2774-AA): -0.645; interaction score (4H310-AA): -0.688; interaction score (4H745-AA): 0.647; interaction score (4H797-AA): -1.07; interaction score (4H850-AA): -0.973; interaction score (4H891-AA): -1.7; interaction score (4H909-AA): -0.788; interaction score (4H94-AA): -1.54; interaction score (4H_APH): -1.1; interaction score (4H_BCR): -1.47; interaction score (4H_GCN4): -1.12; interaction score (GCN2_T): -1.56 |
| -1.37 | -1.4 | -1.65 | -1.45 | 0.931 | -1.09 | -1.77 | -1.68 | -1.91 | -0.637 | -0.447 | -1.5 | -1.69 | -1.21 | -1.54 | -0.626 | -1.65 | -1.46 | 0.298 | -1.63 | DENAALKAEIAALKAENAALKAEIAALKG [4H1626-AA] | interaction score (4H2253-AA; mean of both orientations): -1.52; interaction score (4H2274-AA; mean of both orientations): -1.5; interaction score (4H249-AA): -1.39; interaction score (4H2611-AA): -1.57; interaction score (4H2774-AA): -1.46; interaction score (4H310-AA; mean of both orientations): -1.28; interaction score (4H745-AA): -1.25; interaction score (4H797-AA): -1.41; interaction score (4H850-AA): 1.29; interaction score (4H891-AA): -1.64; interaction score (4H909-AA): -1.36; interaction score (4H94-AA): 1.29 |

Further lines, the binder ahead of its results:

| Binder | interaction score (4H2330-AA) | interaction score (4H2389-AA) | interaction score (4H2438-AA) | interaction score (4H2473-AA) | interaction score (4H2649-AA) | interaction score (4H2698-AA) | interaction score (4H2725-AA) | interaction score (4H2865-AA) | interaction score (4H3120-AA) | interaction score (4H3130-AA) | interaction score (4H3165-AA) | interaction score (4H3381-AA) | interaction score (4H3395-AA) | interaction score (4H3697-AA) | interaction score (4H3753-AA) | interaction score (4H3865-AA) | interaction score (4H458-AA) | interaction score (4H485-AA) | interaction score (4H570-AA) | interaction score (4H629-AA) | further results |
| --- | --- | --- | --- | --- | --- | --- | --- | --- | --- | --- | --- | --- | --- | --- | --- | --- | --- | --- | --- | --- | --- |
| DENAALEAKIAALEAENAALKAKIAALKG [4H1310-AA] | 1.35 | 1.17 | -0.264 | -1.02 | 1.94 | -0.391 | -1.12 | 1.76 | -1.24 | 0.822 | 0.0119 | -1.23 | -0.984 | 0.439 | -1.37 | 2.2 | -1.3 | -1.08 | 0.408 | -1.49 | interaction score (4H2253-AA; mean of both orientations): -0.556; interaction score (4H2274-AA; mean of both orientations): -1.15; interaction score (4H2611-AA): -1.46; interaction score (4H310-AA; mean of both orientations): -0.748; interaction score (4H3606-AA): 2.23; interaction score (4H3631-AA; mean of both orientations): -1.57; interaction score (4H3718-AA): -1.04; interaction score (4H384-AA): -1.55; interaction score (4H697-AA): -1.05; interaction score (4H745-AA): -1.11; interaction score (4H797-AA): 1.92; interaction score (4H850-AA): 1.87; interaction score (4H891-AA): -1.69; interaction score (4H909-AA): -1.21; interaction score (4H94-AA): -0.926; interaction score (4H982-AA): -1.4 |
| DENAALEAEIAALKAKNAALEAKIAALKG [4H1142-AA] | -1.84 | -0.327 | -0.434 | -2.06 | 0.913 | -1.05 | -1.15 | 1.33 | -1.55 | 0.0677 | -0.754 | -0.986 | -1.76 | 2.08 | -2.1 | 0.444 | -1.34 | -0.612 | -0.319 | 0.124 | interaction score (4H2253-AA; mean of both orientations): -1.49; interaction score (4H2274-AA): -1.11; interaction score (4H2611-AA): -0.194; interaction score (4H310-AA): -1.4; interaction score (4H3606-AA): 1.65; interaction score (4H3631-AA): -1.43; interaction score (4H3718-AA): -1.33; interaction score (4H384-AA): -1.72; interaction score (4H697-AA): -1.71; interaction score (4H745-AA): -1.19; interaction score (4H797-AA): -1.29; interaction score (4H850-AA): 0.681; interaction score (4H891-AA): -1.23; interaction score (4H909-AA): -1.05; interaction score (4H94-AA): -1.72; interaction score (4H982-AA): -1.22 |
